Source: publication PMC12412624, “Engineered Cas12j‐8 is a Versatile Platform for Multiplexed Genome Modulation in Mammalian Cells”
Residue numbers refer to the chain shown, from its start.

Columns and labels:
Settings in all cases: HEK293T cells; panel 1c (compare within a panel only); scale: mean GFP / mean GFP of wild type, printed, no background subtraction
[1] = tested on: T1, dCas12j-8 E100R E100R;D369A;E567A;D658A (bacteriophage (metagenome))
T1 sequence: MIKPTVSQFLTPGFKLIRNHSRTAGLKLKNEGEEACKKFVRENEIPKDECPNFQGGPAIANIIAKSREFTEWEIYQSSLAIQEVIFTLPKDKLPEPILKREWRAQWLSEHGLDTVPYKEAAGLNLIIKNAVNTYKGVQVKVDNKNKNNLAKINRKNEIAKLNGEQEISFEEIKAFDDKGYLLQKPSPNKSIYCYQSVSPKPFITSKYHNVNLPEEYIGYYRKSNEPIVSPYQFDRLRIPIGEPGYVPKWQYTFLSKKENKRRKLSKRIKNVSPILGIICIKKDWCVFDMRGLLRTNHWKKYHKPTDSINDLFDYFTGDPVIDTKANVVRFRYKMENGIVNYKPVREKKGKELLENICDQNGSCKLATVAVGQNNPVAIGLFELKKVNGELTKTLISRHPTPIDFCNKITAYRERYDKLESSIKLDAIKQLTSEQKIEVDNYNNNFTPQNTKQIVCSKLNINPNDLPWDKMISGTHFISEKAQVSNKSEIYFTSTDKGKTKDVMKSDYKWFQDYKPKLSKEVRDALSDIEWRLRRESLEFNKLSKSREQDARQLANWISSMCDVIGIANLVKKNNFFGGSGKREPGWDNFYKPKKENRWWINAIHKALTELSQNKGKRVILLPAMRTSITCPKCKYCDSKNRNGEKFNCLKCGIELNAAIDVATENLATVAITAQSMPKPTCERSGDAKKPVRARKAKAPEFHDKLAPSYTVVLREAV

[2] = tested on: T2, dCas12j-8 E101R E101R;D369A;E567A;D658A (bacteriophage (metagenome))
T2 sequence: T1 sequence with R100E, E101R

[3] = tested on: T3, dCas12j-8 E157R E157R;D369A;E567A;D658A (bacteriophage (metagenome))
T3 sequence: T1 sequence with R100E, E157R

[4] = tested on: T4, dCas12j-8 E242R E242R;D369A;E567A;D658A (bacteriophage (metagenome))
T4 sequence: T1 sequence with R100E, E242R

## CUUUCAAGACUAAUAGAUUGCUCCUUACGAGGAGACACUCCCUAUCAGUGAUAGAG / TTNACTCCCTATCAGTGATAGAG / CTCTATCACTGATAGGGAGTNAA [TetO]
[1]
  binding signal: 0.834
[2]
  binding signal: 0.711
[3]
  binding signal: 1.39
[4]
  binding signal: 0.683
